Laboratory results from patent US6713604 (TEXAS BIOTECHNOLOGY, dated 2004).
Bridges are numbered along the chain shown (N, C = ends). Where no end group is shown, it is not given here. [ ]: non-standard residue; d: D form.

B1: SEQ ID NO 39 (peptide)
peptide: [dC]SWLDV[dC]-OH
modifications: disulfide 1-7; N-terminus assumed
SMILES: CC(C)C[C@@H]1NC(=O)[C@H](Cc2c[nH]c3ccccc23)NC(=O)[C@H](CO)NC(=O)[C@H](N)CSSC[C@H](C(=O)O)NC(=O)[C@H](C(C)C)NC(=O)[C@H](CC(=O)O)NC1=O
B2: fusion protein of the two N-terminal domains of human VCAM with the hinge, CH2 and CH3 regions of mouse IgG2A (Fc fusion, UniProt P19320 25-220, looked up)
chain: FKIETTPESRYLAQIGDSVSLTCSTTGCESPFFSWRTQIDSPLNGKVTNEGTTSTLTMNPVSFGNEHSYLCTATCESRKLEKGIQVEIYSFPKDPEIHLSGPLEAGKPITVKCSVADVYPFDRLEIDLLKGDHLMKSQEFLEDADRKSLETKSLEVTFTPVIEDIGKVLVCRAKLHIDEMDSVPTVRQAVKELQVY
notes: domain: two N-terminal domains; Secreted from transfected COS cells and captured on Dynal magnetic beads coated with goat anti-mouse IgG; also called VCAM-1; purified VCAM; not shown: mouse IgG2A hinge, CH2 and CH3 regions, amplified from cDNA of the hybridoma cell line 402C10
B3: SEQ ID NO 4 (peptide)
peptide: EWLDV
modifications: cyclic: lactam formed by condensation of the N and C terminus
notes: Head-to-tail cyclic lactam; also called Glu-Trp-Leu-Asp-Val
B4: SEQ ID NO 5 (peptide)
peptide: EWLDD
modifications: cyclic: lactam formed by condensation of the N and C terminus
notes: Head-to-tail cyclic lactam; also called Glu-Trp-Leu-Asp-Asp
B5: SEQ ID NO 7 (peptide)
peptide: GPEFLDV
modifications: cyclic: lactam formed by condensation of the N and C terminus
notes: Head-to-tail cyclic lactam; also called Gly-Pro-Glu-Phe-Leu-Asp-Val
B6: SEQ ID NO 9 (peptide)
peptide: SWLDVC-OH
modifications: thioether (positions not given here); not fully specified (N-terminus, bridges); printed as CH2CO-Ser-Trp-Leu-Asp-Val-Cys-acid; also: sulfide, sulfoxide or sulfone not given here
notes: also called CH2CO-Ser-Trp-Leu-Asp-Val-Cys-acid
B7: SEQ ID NO 10 (peptide)
peptide: {CH2CO}-EWLDVC-OH
modifications: thioether N-6; also: sulfide, sulfoxide or sulfone not given here
notes: also called CH2CO-Glu-Trp-Leu-Asp-Val-Cys-acid

Columns and labels:
integrin α4β1 (human) = integrin α4β1 (human) (UniProt P13612); test: inhibition of HL-60 cell (α4β1) binding to VCAM-IgG coated beads, fluorimetry
integrin α4β1 [1] = biological target: T1, integrin α4β1 (human, UniProt P13612 34-1032; P05556 21-798); test: VCAM-IgG fusion on goat anti-mouse IgG magnetic beads; binding of Ramos and HL-60 cells
T1 construct: whole, on cells; also called VLA-4; very late antigen-4
Source text: (§1) The media was collected and active protein was purified by immunoprecipitation using Dynal magnetic polystyrene beads coated with goat anti-mouse IgG. Following immunoprecipitation, the beads bound cells that expressed the integrin α_4β_1 such as Ramos and HL-60.

integrin α4β1 [2] = biological target: T1, integrin α4β1; test: inhibition of HL-60 cell (α4β1) binding to VCAM-IgG coated beads, fluorimetry
Description: as §1
HL-60 cells were fluorescently labeled with Calcein AM C-3099 (Molecular Probes) and resuspended in 1 ml of binding buffer (Hank's balanced salt solution, pH 7.4, 1.0 mM CaCl_2, 1.0 mM MgCl_2). The beads (10 µl, 4×10^6 beads/ml) were placed in wells of a 96-well microtiter dish with 10 µl of peptide at various concentrations. The beads were incubated with 10 µl of labeled cells (10^7 cells/ml) for 10 min at room temperature. Following immobilization of the beads onto the plastic with a magnet, unbound cells were removed by washing three times with binding buffer. The remaining bound cells were lysed in 50 mM Tris, pH 7.4, 5.0 mM EDTA, 1.0% NP-40 and quantitated by fluorimetry using a Millipore Cytofluor 2350 fluorimeter. Dose response curves were calculated and IC$50$ values determined. Alternatively, the percent adhesion was determined at a single peptide concentration for comparison among peptides.

T1 sequence (P13612 34-1032, chain 1 of 2): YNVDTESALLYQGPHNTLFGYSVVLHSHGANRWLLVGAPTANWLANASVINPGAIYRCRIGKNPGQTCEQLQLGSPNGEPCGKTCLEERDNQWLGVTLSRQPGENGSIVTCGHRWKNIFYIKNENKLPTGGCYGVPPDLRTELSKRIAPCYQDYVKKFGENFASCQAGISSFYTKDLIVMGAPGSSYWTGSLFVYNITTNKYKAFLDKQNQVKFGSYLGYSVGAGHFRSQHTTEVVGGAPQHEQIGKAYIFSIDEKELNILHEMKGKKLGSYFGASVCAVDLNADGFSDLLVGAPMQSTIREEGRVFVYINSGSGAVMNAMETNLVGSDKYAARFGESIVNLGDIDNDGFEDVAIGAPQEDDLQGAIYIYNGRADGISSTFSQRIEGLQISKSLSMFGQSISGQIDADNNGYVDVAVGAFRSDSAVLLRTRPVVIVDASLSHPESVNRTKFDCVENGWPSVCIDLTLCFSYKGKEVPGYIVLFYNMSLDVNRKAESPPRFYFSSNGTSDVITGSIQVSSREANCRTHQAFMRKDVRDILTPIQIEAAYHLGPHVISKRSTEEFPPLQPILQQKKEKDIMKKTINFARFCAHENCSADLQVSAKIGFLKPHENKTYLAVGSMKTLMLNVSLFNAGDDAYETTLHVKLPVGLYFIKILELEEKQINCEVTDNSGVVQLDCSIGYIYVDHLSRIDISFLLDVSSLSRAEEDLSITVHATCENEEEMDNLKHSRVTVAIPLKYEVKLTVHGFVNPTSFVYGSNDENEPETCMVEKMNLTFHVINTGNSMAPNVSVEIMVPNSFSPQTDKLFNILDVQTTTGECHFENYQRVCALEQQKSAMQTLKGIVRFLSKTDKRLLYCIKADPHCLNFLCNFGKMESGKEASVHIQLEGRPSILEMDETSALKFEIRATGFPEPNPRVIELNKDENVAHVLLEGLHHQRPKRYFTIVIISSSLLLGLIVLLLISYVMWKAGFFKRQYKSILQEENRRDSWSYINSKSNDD
T1 sequence (P05556 21-798, chain 2 of 2): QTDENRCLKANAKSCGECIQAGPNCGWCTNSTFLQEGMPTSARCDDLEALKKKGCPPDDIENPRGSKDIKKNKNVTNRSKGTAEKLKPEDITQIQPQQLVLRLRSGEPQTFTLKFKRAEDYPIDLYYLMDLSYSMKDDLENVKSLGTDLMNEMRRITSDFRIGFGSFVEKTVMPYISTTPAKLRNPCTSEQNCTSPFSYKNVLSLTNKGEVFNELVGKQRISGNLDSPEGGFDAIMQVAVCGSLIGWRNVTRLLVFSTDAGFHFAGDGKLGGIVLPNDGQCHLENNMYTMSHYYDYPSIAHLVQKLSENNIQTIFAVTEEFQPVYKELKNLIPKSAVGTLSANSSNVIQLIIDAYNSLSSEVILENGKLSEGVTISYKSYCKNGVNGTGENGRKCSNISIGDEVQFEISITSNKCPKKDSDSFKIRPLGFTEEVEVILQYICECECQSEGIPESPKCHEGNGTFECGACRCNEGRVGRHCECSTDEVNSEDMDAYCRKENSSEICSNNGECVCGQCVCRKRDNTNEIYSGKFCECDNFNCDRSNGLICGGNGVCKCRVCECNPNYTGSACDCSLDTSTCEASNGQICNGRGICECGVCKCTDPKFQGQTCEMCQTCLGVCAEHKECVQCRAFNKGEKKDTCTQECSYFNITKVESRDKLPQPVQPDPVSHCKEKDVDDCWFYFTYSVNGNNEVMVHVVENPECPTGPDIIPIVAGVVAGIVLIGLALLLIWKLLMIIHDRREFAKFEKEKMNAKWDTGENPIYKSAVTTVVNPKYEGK
integrin α4β1 (human), sequence (P13612 34-1032, chain 1 of 2): as the sequence (P13612 34-1032, chain 1 of 2) above
integrin α4β1 (human), sequence (P05556 21-798, chain 2 of 2, further chain): as the sequence (P05556 21-798, chain 2 of 2) above

| Binder | peptide concentration that significantly inhibits binding (integrin α4β1 [2]) [µM] | further results |
| --- | --- | --- |
| B1 |  | peptide concentration that significantly inhibits binding (integrin α4β1 (human)): < 10 µM |
| B2 |  | binding result (integrin α4β1 [1]): binds |
| B3 | < 10 |  |
| B4 | < 10 |  |
| EWLDVPEWLDV (cyclic: lactam formed by condensation of the N and C terminus, Head-to-tail cyclic lactam) [SEQ ID NO 6] | < 10 |  |
| B5 | < 10 |  |
| B6 | < 10 |  |
| B7 | < 10 |  |
